Residues, ends and D or L forms follow the SMILES beside them. *: point of attachment. Cbz = O=C(OCc1ccccc1)*
Assays:
HLS-5 = test: Confocal microscopy of HLS-5 localisation in COS7 cells; assay type: cell-based
Description: (A) Confocal microscopy of COS7 cells co-expressing Myc-tagged HLS-5 and GFP-SUMO-1. HLS-5 was detected with anti-Myc antibodies in conjunction with red secondary antibodies and SUMO-1 detected by green fluorescent. (B) Confocal microscopy of COS7 cells co-expressing Myc-tagged HLS-5 and GATA-1. GATA-1 was detected with an anti-GATA-1 antibody and HLS-5 was detected with anti-Myc antibodies in conjunction with red and green fluorescent secondary antibodies respectively. (C) Confocal microscopy of COS7 cells co-expressing myc-tagged HLS-5 in the presence of MG132. HLS-5 was detected with anti-Myc antibodies in conjunction with red fluorescent secondary antibodies
(§1) Also, COS7 cells co-expressing Myc-tagged HLS-5 or a mutant form of HLS-5 lacking its Ring finger (ΔN61) and HA-tagged SUMO1 were analysed in the presence or absence of MG132.
As HLS-5 is located principally within cytoplasmic granules, the effects of Ubc9, PIAS1, MG-132 and SUMO-1 on HLS-5 compartmentalization were investigated. […] However, when the SUMO-1 and HLS-5 were co-expressed, there was a remarkable increase in the amount of HLS5 appearing in the nucleus (FIG. 3A). Therefore SUMO1 promoted translocation of HLS-5 from cytoplasmic granules into the nucleus.

Hela cells = test: HLS5-induced apoptosis in co-transfected Hela cells; assay type: cell-based, human; conditions: HLS5 alone or co-transfected with the named protein
Description: To examine the biological effects of Ubc9, PIAS1 and SUMO-1 on HLS5-induced apoptosis, COS cells and HeLa cells were co-transfected with these molecules and cell death monitored. […] However, the effects of SUMO-1 on cell death induced by HLS5 were less pronounced.

SUMO-1 [1] = test: Immunoblot of SUMO-1 levels in COS cells co-expressing HLS-5; assay type: cell-based; conditions: SUMO-1 and HLS-5 co-expressed, FIG. 5B
Description: (§2) (A) Hela cells co-expressing Myc-tagged HLS-5 and HA-tagged PIAS1. PIAS1 was detected with an anti-HA antibody and HLS-5 was detected as a GFP fusion protein in conjunction with red and green fluorescent secondary antibodies respectively. (B) COS7 cells transfected with GFP-tagged HLS-5 and/or HA-tagged PIAS1, UBC9 or SUMO-1 and immunoblotted (IB) with antibodies to HA. (C) Lysates from COS7 cells transfected with Different Myc-tagged HLS-5 deletion constructs and HA-tagged-PIAS1, and GFP-tagged Histone 2B as a transfection/Loading control. Samples were immunoblotted (IB) with antibodies to GFP, HA and Myc.
(§3) To investigate whether HLS-5 was a functional E3 ligase, SUMO-1 and HLS-5 were co-expressed in COS cells and total protein sumoylation ascertained by immunoblotting. […] We then investigated which domain of HLS-5 was involved in the elimination of PIAS1 protein expression. […] Thus, HLS-5 altered global protein SUMOylation and reduced intracellular content of SUMO-1, PIAS1 and Ubc9, key components of the SUMOylation machinery and this action is accomplished partly through its B Box & Coiled Coil domain.

PIAS1 [2] = test: Immunoblot of PIAS1 levels in COS cells co-expressing HLS-5 or deletion mutants; assay type: cell-based; conditions: co-expression with HA-tagged PIAS1, FIG. 5B/5C
Description: as §2, §3

Ubc9 [3] = test: Immunoblot of Ubc9 levels in COS cells co-expressing HLS-5; assay type: cell-based; conditions: co-expression, FIG. 5B
Description: as §2, §3

global SUMOylation = test: Total protein sumoylation by immunoblotting in COS cells co-expressing SUMO-1 and HLS-5; assay type: cell-based; conditions: SUMO-1 and HLS-5 co-expressed
Description: as §2, §3

GATA-1 [4] = test: GATA-1 transactivation luciferase reporter assay in COS cells; assay type: cell-based
Description: (§4) (B and C) Lysates from COS7 cells transfected with Myc-tagged HLS-5 and/or GATA-1, and/or HA-tagged Sumo-1, and/or HA-tagged PIAS1 were immunoblotted (IB) with antibodies to GATA-1, HA or Myc D) COS7 cells were transfected as shown in the presence of pGL3-M1α firefly luciferase reporter construct and pRN-CMV renilla luciferase construct. Relative GATA-1 activity was determined by dividing firefly activity with renilla activity. Amount of DNA used was 200 ng per transfection (+) unless otherwise shown. Samples were performed in duplicate and shown is the mean±range. Data shown are representative of three independent experiments.
The effect of HLS-5 on sumoylated GATA-1 transactivation was then examined using the MIα promoter and luciferase reporter assays. […] These observations contrast with the inhibitory effects of GATA-1 sumoylation on transactivation reported by Collavin et al. (2004, supra). […] These observations are consistent with a modulatory role for HLS5 in sumoylation.

Ubc9 [5] = target: T1, Ubc9 (Homo sapiens, UniProt P63279); test: BRET assay of HLS-5 and Ubc9 in COS cells; assay type: binding; conditions: HLS-5 and Ubc9 constructs co-expressed in COS cells
T1 construct: expressed in transfected cells; host or cells: yeast (two-hybrid)
T1 sequence (P63279 whole entry, species assumed): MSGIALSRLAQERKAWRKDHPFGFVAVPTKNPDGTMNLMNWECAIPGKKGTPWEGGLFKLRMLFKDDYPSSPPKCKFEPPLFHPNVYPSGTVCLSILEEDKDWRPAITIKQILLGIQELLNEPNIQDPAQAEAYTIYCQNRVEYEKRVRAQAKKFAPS
Description: (§5) (A) Full length Ubc9 was examined for binding to various HLS-5 constructs as shown using yeast two-hybrid. Binding was measured by filter assay for β-galactosidase activity. (B) BRET assay of COS7 cells expressing HLS-5. Rluc fusion protein with increasing amounts of GFP-Ubc9 fusion protein. Results presented as BRET ratio. (C) PIAS1 (aa 303-651) fragment isolated from the Y2H screen was assessed for binding to various HLS-5 constructs as shown using yeast two-hybrid. Binding was measured by filter assay for β-galactosidase activity. (D) Lysates from COS7 cells transfected with Myc-tagged HLS-5, HA-tagged PIAS1 and/or GATA-1 were immunoprecipitated (IP) with anti-Myc antibodies and immunoblotted (IB) with antibodies to HA or Myc in the presence and/or absence of NEM/IAA.
The interaction between HLS-5 and Ubc9 was characterized further by yeast 2 hybrid assays to define important binding domains. […] To confirm that HLS-5 and Ubc9 were genuine binding partners, the interaction was investigated in mammalian cells using bioluminescence resonance energy transfer (BRET), which is able to detect protein:protein interactions in living cells (Xu et al., 1999, Proc Natl Acad Sci USA, 96, 151-156). […] However, this interaction may well be transient as the two molecules could not be co-immunoprecipitate (data not shown). […]

Ubc9 [6] = target: T1, Ubc9; test: Yeast two-hybrid binding of HLS-5 to Ubc9; conditions: yeast 2 hybrid, β-galactosidase filter assay
Description: as §5
A yeast two-hybrid screen for HLS-5 interacting partners identified two proteins involved in the sumoylation pathway viz Ubc9 and PIAS1.
The interaction between HLS-5 and Ubc9 was characterized further by yeast 2 hybrid assays to define important binding domains. […] To confirm that HLS-5 and Ubc9 were genuine binding partners, the interaction was investigated in mammalian cells using bioluminescence resonance energy transfer (BRET), which is able to detect protein:protein interactions in living cells (Xu et al., 1999, Proc Natl Acad Sci USA, 96, 151-156). […]

SUMO-1 [7] = target: T2, SUMO-1 (Homo sapiens, UniProt P63165); test: Yeast two-hybrid binding of HLS-5 to SUMO-1
T2 construct: expressed in transfected cells; host or cells: yeast (two-hybrid)
T2 sequence (P63165 whole entry, species assumed): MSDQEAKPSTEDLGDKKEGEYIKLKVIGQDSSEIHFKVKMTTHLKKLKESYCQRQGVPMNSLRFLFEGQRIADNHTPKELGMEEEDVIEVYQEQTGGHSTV
Description: (§6) (A) Potential sumoylation sites of HLS-5 are shown. (B) Binding of Hls-5 deletion mutants to full length Sumo-1 was examined in the yeast system by filter assay for β-galactosidase activity. (C) Interaction between Hls-5 and Sumo-1, 2 or 3 was examined using yeast two-hybrid. Binding was assessed using a liquid assay to measure β-galactosidase activity. Samples were measured in triplicate and shown is the mean±standard deviation. (D) Lysates from COS7 cells transfected with Myc-tagged Hls-5, and/or HA-tagged Sumo-1, HA-tagged UBC9, HA-tagged PIAS1 were immunoblotted (IB) with antibodies to Sumo-1 or Myc.
(§7) Since HLS-5 was able to interact with Ubc9 and PIAS1, the possibility that HLS-5 is sumoylated was then examined. Like other RBCC/TRIM family members such as PML (Duprez et al., 1999, J Cell Sci., 112, 381-393; Kamitani et al., 1998, J. Biol. Chem., 273, 26675-26682), HLS-5 has several ΨKxE/D consensus sumoylation sites (FIG. 2a). To determine if HLS-5 was able to bind SUMO-1, the yeast two-hybrid system was employed using several HLS-5 deletion mutants.

SUMO-2 = test: Yeast two-hybrid binding of HLS-5 to SUMO-2; conditions: liquid β-galactosidase assay
Description: as §6, §7

SUMO-3 = test: Yeast two-hybrid binding of HLS-5 to SUMO-3; conditions: liquid β-galactosidase assay
Description: as §6, §7

PIAS1 [8] = target: T3, PIAS1 (Homo sapiens, UniProt O75925); test: Co-immunoprecipitation of HLS-5 and PIAS1 in COS cells; assay type: binding; conditions: when GATA-1 was present
T3 construct: HA; expressed in transfected cells; host or cells: COS7
T3 sequence (O75925 whole entry, species assumed): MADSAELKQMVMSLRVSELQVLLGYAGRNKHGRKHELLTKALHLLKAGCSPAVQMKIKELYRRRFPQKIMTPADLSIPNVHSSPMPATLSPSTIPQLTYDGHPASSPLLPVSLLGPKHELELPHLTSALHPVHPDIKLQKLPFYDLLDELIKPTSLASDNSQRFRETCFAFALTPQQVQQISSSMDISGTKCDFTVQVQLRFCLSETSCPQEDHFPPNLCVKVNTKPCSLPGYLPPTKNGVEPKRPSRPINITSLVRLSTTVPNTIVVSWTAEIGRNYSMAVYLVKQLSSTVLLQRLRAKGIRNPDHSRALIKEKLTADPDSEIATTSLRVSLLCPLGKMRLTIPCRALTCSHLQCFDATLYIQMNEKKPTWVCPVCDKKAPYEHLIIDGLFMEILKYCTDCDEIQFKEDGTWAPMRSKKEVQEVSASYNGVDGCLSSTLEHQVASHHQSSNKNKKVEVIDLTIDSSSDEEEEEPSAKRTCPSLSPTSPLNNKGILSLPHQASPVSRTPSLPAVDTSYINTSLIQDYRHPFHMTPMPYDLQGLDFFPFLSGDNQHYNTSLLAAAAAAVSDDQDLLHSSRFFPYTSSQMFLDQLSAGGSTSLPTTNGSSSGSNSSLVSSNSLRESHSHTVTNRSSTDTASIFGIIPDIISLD
Description: as §5
As PIAS1 mainly is a nuclear protein (Tan et al., 2000, Mol Endocrinol, 14, 14-26), and HLS-5 is primarily cytoplasmic, the failure of these molecules to interact may be caused by subcellular separation. Since GATA-1 promotes nuclear re-localization of HLS-5 (see below and FIG. 3b) it was included in co-transfections with HLS5 and PIAS1. […] It is postulated that the redistribution of HLS-5 induced by GATA-1 enabled nuclear access and binding to PIAS1 or that GATA-1, HLS-5 and PIAS1 form a protein complex required for this interaction.

GATA-1 [9] = test: Co-immunoprecipitation of HLS-5 and GATA-1 in COS cells; assay type: binding; conditions: with isopeptidase inhibitors NEM and IAA
Description: as §4
The interaction between GATA-1 and HLS5 was then examined biochemically by transfecting COS cells with myc-tagged HLS-5 and GATA-1, followed by immunoprecipitation and immunoblotting.

SUMOylated substrate = SUMOylated substrate co-immunoprecipitating with Myc-tagged HLS-5 in COS7 cells; assay type: cell-based; conditions: HA-tagged SUMO1, in the presence of MG132, FIG. 6A
Description: (A) COS7 cells co-expressing Myc-tagged HLS-5 or a mutant form of HLS5 lacking its Ring finger (ΔN61) and HA-tagged SUMO1 in the presence or absence of MG132. SUMOylated substrate was detected with an anti-HA antibody and HLS-5 was immunoprecipitated by using a Myc antibodies respectively.
as §1

| BRET ratio (Ubc9 [5]) | association with Ubc9 (Ubc9 [6]) | interaction with SUMO-1 (SUMO-1 [7]) | binding to SUMO-2 (SUMO-2) | binding to SUMO-3 (SUMO-3) | co-immunoprecipitation with PIAS1 (PIAS1 [8]) | Molecule | translocation of HLS-5 from cytoplasmic granules into the nucleus (HLS-5; COS7 cells) | effect on HLS-5 accumulation (HLS-5; COS7 cells expressing myc-tagged HLS-5, FIG. 3C) | apoptosis / cell death caused by HLS5 (Hela cells) | reduction of the levels of SUMO-1 (SUMO-1 [1]) [%] | PIAS1 protein level (PIAS1 [2]) | Ubc9 protein level (Ubc9 [3]) | overall sumoylation (global SUMOylation) | GATA-1 activity (GATA-1 [4]; co-expression with SUMO-1) | GATA-1 transactivation (GATA-1 [4]; in the presence of both SUMO-1 and PIAS1) | co-immunoprecipitation with GATA-1 (GATA-1 [9]) | SUMOylated substrate detected with anti-HA antibody (SUMOylated substrate) |
| --- | --- | --- | --- | --- | --- | --- | --- | --- | --- | --- | --- | --- | --- | --- | --- | --- | --- |
|  |  |  |  |  |  | CC(C)C[C@@H](C=O)NC(=O)[C@H](CC(C)C)NC(=O)[C@H](CC(C)C)NC(=O)OCc1ccccc1 [MG132] (Cbz-Leu-Leu-Leu-aldehyde) | translocation was also observed | accumulation of HLS-5 |  |  |  |  |  |  |  |  |  |
|  |  |  |  |  |  | Ubc9: E2 enzyme in the SUMO-1 conjugation pathway |  |  | 12 % of cells |  |  |  |  |  |  |  |  |
| positive BRET ratio | able to associate with Ubc9 | could interact with SUMO-1 | neither SUMO-2, nor SUMO-3 bound | neither SUMO-2, nor SUMO-3 bound | could co-immunoprecipitate | HLS-5: member of the RING finger B-box Coiled-coil (RBCC) protein family; tested by expression from transfected constructs (protein, listed as Homo sapiens) MERSPDVSPGPSRSFKEELLCAVCYDPFRDAVTLRCGHNFCRGCVSRCWEVQVSPTCPVCKDRASPADLRTNHTLNNLVEKLLREEAEGARWTSYRFSRVCRLHRGQLSLFCLEDKELLCCSCQADPRHQGHRVQPVKDTAHDFRAKCRNMEHALREKAKAFWAMRRSYEAIAKHNQVEAAWLEGRIRQEFDKLREFLRVEEQAILDAMAEETRQKQLLADEKMKQLTEETEVLAHEIERLQMEMKEDDVSFLMKHKSRKRRLFCTMEPEPVQPGMLIDVCKYLGSLQYRVWKKMLASVESVPFSFDPNTAAGWLSVSDDLTSVTNHGYRVQVENPERFSSAPCLLGSRVFSQGSHAWEVALGGLQSWRVGVVRVRQDSGAEGHSHSCYHDTRSGFWYVCRTQGVEGDHCVTSDPATSPLVLAIPRRLRVELECEEGELSFYDAERHCHLYTFHARFGEVRPYFYLGGARGAGPPEPLRICPLHISVKEELDG |  |  | 60 % of cells | > 95 | almost complete elimination of PIAS1 | reduced the levels of Ubc9 | reduced | decreased GATA-1 activity | suppressed GATA-1 transactivation | GATA-1 was detected in HLS-5 immunoprecipitates | SUMOylated substrate detected |
